Results: US7307063B2, “Melanocortin metallopeptides for treatment of sexual dysfunction” (Palatin Technologies, Inc., priority 2001, dated 2007)
Non-standard residues stand in square brackets, D forms with d. Nle = CCCC[C@H](N)C(=O)O

Assays:
hMC3-R = molecular target: T1, hMC3-R (Homo sapiens, UniProt P41968); test: Competitive binding assay: inhibition of 125I-NDP-α-MSH binding to HEK-293 membranes with cloned human receptor subtype 3; settings: Table 1; 10 μM Re-complexed peptide
T1 construct: expressed in transfected cells; host or cells: HEK-293
Procedure: Rhenium-complexed metallopeptides of the formulas given in Table 1 were prepared, with the metallopeptides complexed with rhenium using the rhenium transfer agent ReOCl3(PPh3)2 in the presence of 1,8-Diazabicyclo[5,4,0] undec-7-ene as a base, as disclosed in International Application PCT/US00/16396, filed Jun. 14, 2000, Melanocortin Metallopeptide Constructs, Combinatorial Libraries and Applications, incorporated by reference herein. Affinities of compounds were measured using membranes from HEK-293 cells containing cloned human melanocortin receptor subtypes 3, 4 and 5. MC1-R membranes were isolated from B16—F10 mouse melanoma cells. The assay tube also contained a chosen concentration of the test peptide of this invention, complexed to a rhenium metal ion as indicated, for determining its efficacy in inhibiting the binding of ^125I-NDP-α-MSH to its receptor. Non-specific binding was measured by complete inhibition of binding of ^125I-NDP-α-MSH in the assay with the presence of 1 μM α-MSH. 100% specific binding was defined as the difference in radioactivity (cpm) bound to cell membranes in the absence and presence of 1 μM α-MSH. The cpm obtained in presence of test compounds were normalized with respect to 100% specific binding to determine the percent inhibition of ^125I-NDP-α-MSH binding.

MC1-R [1] = molecular target: T2, MC1-R (Mus musculus, UniProt Q01727); test: Functional activity assay: intracellular cAMP in B16-F10 mouse melanoma cells expressing MC1-R; type: cell-based; settings: Re-complexed peptide
T2 construct: MC1-R membranes were isolated from B16—F10 mouse melanoma cells; endogenous in cells; host or cells: B16-F10 mouse melanoma cells
Procedure: Rhenium-complexed metallopeptides were prepared, with functional evaluation of peptides at MC1-R and MC4-R performed by measuring the accumulation of intracellular cAMP in HEK-293 cells expressing MC4-R or B16-F10 mouse melanoma cells expressing MC1-R. Antagonistic activity was determined by measuring the inhibition of α-MSH-induced cAMP levels following exposure to peptide. Cells, suspended in Earle's Balanced Salt Solution containing 10 mM HEPES, pH 7.5, 5 mM MgCl2, 1 mM glutamine, 0.1% albumin and 0.6 mM 3-isobutyl-1-methyl-xanthine, a phosphodiesterase inhibitor, were plated in 96 well plates at a density of 0.5×10^5 cells per well. Cells were incubated with the test peptides in the presence or absence of α-MSH for 1 hour at 37° C. cAMP levels were measured by EIA (Amersham) in the cell lysates. Data analysis and EC50 values were determined using nonlinear regression analysis with Prism Graph-Pad software.

MC4-R = molecular target: T3, MC4-R (Homo sapiens, UniProt P32245); test: Competitive binding assay: inhibition of 125I-NDP-α-MSH binding to HEK-293 membranes with cloned human receptor subtype 4; settings: Table 1; 10 μM Re-complexed peptide
T3 construct: expressed in transfected cells; host or cells: HEK-293
In short: (§1)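 Rhenium-complexed metallopeptides at a chosen single concentration competed with 125I-NDP-α-MSH on membranes of HEK-293 expressing cloned human MC receptors or, for MC1-R, B16-F10 mouse melanoma cells. Percent inhibition normalized to specific binding (nonspecific defined with 1 μM α-MSH); means of triplicates.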

hMC5-R = molecular target: T4, hMC5-R (Homo sapiens, UniProt P33032); test: Competitive binding assay: inhibition of 125I-NDP-α-MSH binding to HEK-293 membranes with cloned human receptor subtype 5; settings: Table 1; 10 μM Re-complexed peptide
T4 construct: expressed in transfected cells; host or cells: HEK-293
In short: as §1

MC1-R [2] = molecular target: T2, MC1-R; test: Competitive binding assay: inhibition of 125I-NDP-α-MSH binding to membranes from B16-F10 mouse melanoma cells; settings: Table 1; 10 μM Re-complexed peptide
In short: as §1

Male Sprague-Dawley rats = test: Penile erection behavior dose response animal studies; type: in vivo, rat; settings: for Mean Penile Erections/Rat: 30 min observation
Procedure: For behavioral experiments test solutions of rhenium-complexed metallopeptides were freshly prepared in DMSO and diluted in saline. Male Sprague-Dawley rats (Taconic) weighing 200-250 g were kept on a 12 hour on/off light cycle with food and water ad libitum. All behavioral studies were performed between 10 a.m. and 5 p.m. Groups of 3-10 rats were treated with the rhenium-complexed metallopeptides at a variety of doses via intravenous (IV) injection. In a second experimental paradigm, rats were treated a selected compound intranasally (IN) using a micropipet to deliver 25 μl of solution into one nostril. Immediately after treatment, rats were placed into individual Lucite cages (27 cm long, 16 cm wide and 25 cm high) for behavioral observation.

T2 sequence (Q01727 whole entry): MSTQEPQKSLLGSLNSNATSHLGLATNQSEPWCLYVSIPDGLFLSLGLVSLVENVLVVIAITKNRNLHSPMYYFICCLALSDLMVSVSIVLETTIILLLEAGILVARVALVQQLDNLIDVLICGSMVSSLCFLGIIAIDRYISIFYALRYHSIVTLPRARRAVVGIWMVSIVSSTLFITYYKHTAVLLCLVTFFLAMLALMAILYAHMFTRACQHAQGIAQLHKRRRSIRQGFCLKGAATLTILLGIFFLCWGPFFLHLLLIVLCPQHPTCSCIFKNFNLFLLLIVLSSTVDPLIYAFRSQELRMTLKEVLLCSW
T3 sequence (P32245 whole entry): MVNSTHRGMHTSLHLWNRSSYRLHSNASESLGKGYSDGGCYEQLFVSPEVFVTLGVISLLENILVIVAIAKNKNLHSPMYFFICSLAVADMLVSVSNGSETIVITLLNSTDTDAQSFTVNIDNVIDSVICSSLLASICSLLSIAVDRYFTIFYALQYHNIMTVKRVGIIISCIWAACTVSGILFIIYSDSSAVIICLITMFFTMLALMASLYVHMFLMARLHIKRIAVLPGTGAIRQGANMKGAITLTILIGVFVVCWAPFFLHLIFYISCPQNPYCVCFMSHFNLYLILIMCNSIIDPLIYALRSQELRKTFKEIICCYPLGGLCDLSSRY
T1 sequence (P41968 whole entry): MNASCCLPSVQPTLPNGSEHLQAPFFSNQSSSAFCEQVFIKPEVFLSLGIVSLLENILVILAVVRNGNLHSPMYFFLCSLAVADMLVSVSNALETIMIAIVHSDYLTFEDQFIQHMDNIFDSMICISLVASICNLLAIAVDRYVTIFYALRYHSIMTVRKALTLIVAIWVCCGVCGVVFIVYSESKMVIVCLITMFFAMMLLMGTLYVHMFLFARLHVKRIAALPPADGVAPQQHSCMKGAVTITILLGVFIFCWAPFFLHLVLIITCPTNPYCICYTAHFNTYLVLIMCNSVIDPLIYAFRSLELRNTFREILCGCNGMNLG
T4 sequence (P33032 whole entry): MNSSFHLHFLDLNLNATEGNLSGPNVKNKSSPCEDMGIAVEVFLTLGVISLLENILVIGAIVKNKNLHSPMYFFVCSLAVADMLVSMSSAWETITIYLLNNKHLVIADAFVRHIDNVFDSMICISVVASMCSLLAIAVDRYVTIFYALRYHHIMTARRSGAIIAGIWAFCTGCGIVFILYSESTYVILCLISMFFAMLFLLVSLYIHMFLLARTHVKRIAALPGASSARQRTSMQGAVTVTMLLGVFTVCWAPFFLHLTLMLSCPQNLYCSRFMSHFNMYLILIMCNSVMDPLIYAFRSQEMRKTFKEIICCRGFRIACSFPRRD

% Inhibition of Binding hMC3-R (hMC3-R): 14%
Functional activity at MC1-R (cAMP accumulation) (MC1-R [1]): MC1-R specific agonist
% Inhibition of Binding hMC4-R (MC4-R): 29%
% Inhibition of Binding hMC5-R (hMC5-R): 22%
% Inhibition of Binding MC1-R (MC1-R [2]): 97%
Substance: Ac-Nle-Ala-His-D-Phe-Arg-Cys-Trp-NH2 ({Ac-Nle-Ala-H2N}-[dF]RCW-NH2; also: ReO complex)
Mean Penile Erections/Rat (Male Sprague-Dawley rats; IV 10 μg/kg): 0
Mean Penile Erections/Rat (Male Sprague-Dawley rats; IV 50 μg/kg): 0
Induction of penile erections (PEs) in rat model, in words (Male Sprague-Dawley rats; rats, IV): inactive in inducing PEs
